# Experimental data from patent US20240190960A1 (Chugai, published 2024).
# Substitutions are numbered along the chain they refer to.
# B1: CLA0022 Fab fragment (from CLA0022VH-F760mnP17/CLA0022VL-k0C) (Fab, V domains shown)
# VH: QSLEESGGDLVKPGASLTLTCTASGFSFSSSYWIYWVRQAPGKGLEWIACIYAGVNDITYYANWAKGRFTISKTSSTTVTLQMTSLTAADTATYFCAKGSPDDAFHSWGPGTLVTVSS
# VL: DVVMTQTPASVSEPVGGTVTIKCQASQSIGNYLAWYQQKPGQPPKLLIYYASNLASGVSSRFKGSRSGTEFTLTINDLECADAATYYCQCAYYDSVYVTFGGGTEVVVKR
# notes: Fab prepared from the full antibody with the Pierce Fab Preparation Kit; Rabbit-derived variable regions on human constant regions; also called clamping antibody CLA0022
# B2: CLA0028 Fab fragment (from CLA0028VH-F760mnP17/CLA0028VL-k0C) (Fab, V domains shown)
# VH: B1 VH with V55S, N56T, D57S, I58S, N63S, S100G
# VL: B1 VL with N76S, D94E, V96S
# notes: also called clamping antibody CLA0028
# B3: CLA0311 Fab fragment (from CLA0311VH-F760mnP17/CLA0311VL-k0C) (Fab, V domains shown)
# VH: QSLEESGGGLVQPEGSLTLTCTASGFSLSSSYWICWVRQAPGKGLEWIGCIYTGSGGATHYASWAKGRFTISKTSSTTVTLQMTSLTAADTATYFCASAESGYYAGFFFAPWGPGTLVTVSS
# VL: AFELTQTPSSVEAAVGGTVTIKCQASESIYSGLAWYKQKPGQPPKLLIYSASTLASGVSSRFKGSGSGTQFTLTISDLECADAATYYCQSYYGGSVTGYNTFGGGTEVVVKR
# notes: Fab prepared from the full antibody with the Pierce Fab Preparation Kit; also called clamping antibody CLA0311
# B4: SC003 (antibody, human IgG1, lambda, V domains shown)
# VH: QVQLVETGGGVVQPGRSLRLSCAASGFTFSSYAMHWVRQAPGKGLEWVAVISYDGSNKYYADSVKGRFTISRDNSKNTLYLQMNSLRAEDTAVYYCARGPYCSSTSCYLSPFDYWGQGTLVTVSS
# VL: QSVLTQPPSVSAAPGQKVTISCSGNTSNIGNNYVSWYQQLPGTAPKLLIYRNSDRPSGVPDRFSGSKSGTSASLAITGLQAEDEADYYCQSYDTSLTAVIFGGGTKLTVLG
# notes: also called adenosine-clamping antibody SC003
# B5: SC016 (antibody, human IgG1, lambda, V domains shown)
# VH: EVQLVQSGGGLVQPGRSLRLSCAASGFTFDNHAMHWVRQAPGKGLEWVSRINWNSGGIDYADSVKGRFTISRDNAKNSLYLQMNSLRAEDTALYYCVKDRGSGWYDAFDLWGQGTMVTVSS
# VL: SYELTQPPSVSVAPGQTTRIACGGDSVGSESVHWYQQRPGQAPVLVISYDSDRPSGIPERFSGSKSGNTATLTISRVEAGDEADYYCQVWNSASDHWVFGGGTKLTVLG
# notes: also called adenosine-clamping antibody SC016
# B6: SC014 (antibody, human IgG1, lambda, V domains shown)
# VH: EVQLVQSGGGLVQPGRSLRLSCAASGFTFDDYAMHWVRQAPGKGLEWVSGISWNSGSIGYADSVKGRFAISRDNAKNSLYLQMNSLRAEDTALYYCAKAWNDDAFDIWGQGTMVTVSS
# VL: QSVVTQPPSVSGAPGQRVTVSCTGSNSNIGAGYDVHWYQQLPGTAPKLLIYGSNNRPSGVPDRFSASRSGTSASLAITGLQAEDEAEYYCQTYDTGLSGPGVVFGGGTKVTVLS
# notes: also called adenosine-clamping antibody SC014
# B7: SC044 (antibody, human IgG1, lambda, V domains shown)
# VH: not shown
# VL: QSVLTQPPSVSGAPGQRVTISCTGSSSNIGAGYDVHWYQQLPGTAPKLLIYGNSNRPSGVPDRFSGSKSGTSASLAITGLQAEDEADYYCQSYDDSRSAVVFGGGTKLTVLG
# notes: also called adenosine-clamping antibody SC044
# B8: SC045 (antibody, human IgG1, lambda, V domains shown)
# VH: QVQLVESGGGLVQPGGSLRLSCAASGFTFSDHYMDWVRQAPGKGLEWVGRTRNKANSYTTEYAASVKGRFTISRDDSKNSLYLQMNSLKTEDTAVYYCARGPTLAYIGYMDYWGQGTLVTVSS
# VL: B7 VL with D95G, R97L, A99V
# notes: also called adenosine-clamping antibody SC045
# B9: SC002 (antibody, human IgG1, lambda, V domains shown)
# VH: EVQLVQSGAEVKKPGASVKVSCKASGYTFTSYGISWVRQAPGQGLEWMGWISAYNGNTNYAQKLQGRVTMTTDTSTSTAYMELRSLRSDDTAVYYCARVSSGSQPDPPYYYYYGMDVWGQGTMVTVSS
# VL: QSVLTQPASVSGSPGQSITISCTGTSSNVESYNLVSWYQQHPGKAPKFIIYEGTRRPSGISNRFSGANSGNAASLTISGLQAEDEADYYCLSYVPSRRRHVFGTGTKVTVLS
# notes: also called adenosine-clamping antibody SC002
# B10: SC019 (antibody, human IgG1, lambda, V domains shown)
# VH: EVQLVESGGGLVKPGGSLRLSCAASGFTFSDYYMSWIRQAPGKGLEWVSYISSSGSTIYYADSVKGRFTISRDNAKNSLYLQMNSLRAEDTAVYYCARASPNVNEGAFDIWGQGTMVTVSS
# VL: QSVLTQPPSMSAAPGQKVTISCSGSGSNIGSSYVSWYQQLPGKAPRLLIYDNNKQVSWVPDRFSGSKSGTSASLVISGLQTGDEADYYCGTWDRSLSAGVFGGGTKVTVLG
# notes: also called adenosine-clamping antibody SC019
# B11: SC034 (antibody, human IgG1, lambda, V domains shown)
# VH: QVQLQQSGAEVKKPGASVKVSCKASGYTFTSYGISWVRQAPGQGLEWMGWISAYNGNTNYAQKLQGRVTMTTDTSTSTAYMELRSLRSDDTAVYYCARDYHSTRPDWPPFPYYYYYGMDVWGQGTTVTVSS
# VL: QSVLTQPHSVSESPGKTVTISCTRSSGRIAANNVQWYQQRPGSAPTTIIYEDNRRPSGVPDRFSGSIDGSSNSASLTISGLKPEDEADYYCQSYVSTTVVFGGGTKLTVLG
# notes: also called adenosine-clamping antibody SC034
# B12: SC001 (antibody, human IgG1, lambda, V domains shown)
# VH: QVQLVQSGGGVVQPGRSLRLSCAASGFTFSSYAMHWVRQAPGKGLEWVAVISYDGSNKYYADSVKGRFTISRDNSKNTLYLQMNSLRAEDTAVYYCARVYQGGATPYYYYGMDVWGQGTMVTVSS
# VL: SYELTQPPSASGTPGQRVTVSCSGSTSNIGNHAVNWYQQLPGTAPKLLIYTNDQRPSGVPNRFSGSKSGISASLAISGLQSEDEADYYCSAWDDSLIGYVFGAGTKVTVLG
# notes: also called adenosine-clamping antibody SC001
# B13: SC048 (antibody, human IgG1, lambda, V domains shown)
# VH: QVQLQESGGGVVQPGRSLRLSCAASGFTFSSYAMHWVRQAPGKGLEWVAVISYDGSNKYYADSVKGRFTISRDNSKNTLYLQMNSLRAEDTAVYYCAKGYSYGPGYFFDYWGQGTLVTVSS
# VL: SSELTQPPSVSVSPGQTANISCSADKLGGKYVSWYQQKPGQSPVLVMYQDKKRPSGIPERLSGSGSGNTATLTISGTQAMDEATYYCQTWDGRSLFFGGGTRLTVLS
# notes: also called adenosine-clamping antibody SC048
# B14: SC032 (antibody, human IgG1, kappa, V domains shown)
# VH: QVQLQQSGAEVKKPGSSVKVSCKASGGTFSSYAISWVRQAPGQGLEWMGRIIPILGIANYAQKFQGRVTITADKSTSTAYMELSSLRSEDTAVYYCAREGLTPYYYGSELGNGMDVWGQGTTVTVSS
# VL: DIQLTQSPSSLSTFVGDRVTITCRTSQNINSYLNWYQQKPGKAPKLLISTTSNLQSGVPSRFSGSGSGTDFTLTINNLQPEDFAIYYCQQTKSFPLTFGGGTKLEIKR
# notes: also called adenosine-clamping antibody SC032
# Target: T1, CD3ε epitope-fused CE115HA056 (CE115HAGP12-rabIgG/GLS3000-rabk)
# T1 construct: rabbit constant regions; also called CE115HAPG12
# Assay: SPR (Biacore T200), ligand captured on protein A, Fab 0-400 nM as analyte, 37 C
# Procedure: (§1) SuRe protein A (GE Healthcare) prepared at 25 μg/mL using Acetate4.5 (GE Healthcare) was immobilized on sensor chip CM4 at approximately 1000 RU per flow cell using an amine coupling kit (GE Healthcare).
# (§2) The sensor chip was regenerated by passing Glycine1.5 and 25 mM NaOH, each at a flow rate of 30 μL/min for 15 seconds. The dissociation constant KD (M) was calculated based on the association rate constant ka (1/Ms) and the dissociation rate constant kd (1/s), which are kinetic parameters calculated from the sensorgram obtained by the measurement. Biacore T200 Evaluation Software (GE Healthcare) was used for calculation of each parameter.
# T1 sequence (heavy, as listed by the source, chain 1 of 2): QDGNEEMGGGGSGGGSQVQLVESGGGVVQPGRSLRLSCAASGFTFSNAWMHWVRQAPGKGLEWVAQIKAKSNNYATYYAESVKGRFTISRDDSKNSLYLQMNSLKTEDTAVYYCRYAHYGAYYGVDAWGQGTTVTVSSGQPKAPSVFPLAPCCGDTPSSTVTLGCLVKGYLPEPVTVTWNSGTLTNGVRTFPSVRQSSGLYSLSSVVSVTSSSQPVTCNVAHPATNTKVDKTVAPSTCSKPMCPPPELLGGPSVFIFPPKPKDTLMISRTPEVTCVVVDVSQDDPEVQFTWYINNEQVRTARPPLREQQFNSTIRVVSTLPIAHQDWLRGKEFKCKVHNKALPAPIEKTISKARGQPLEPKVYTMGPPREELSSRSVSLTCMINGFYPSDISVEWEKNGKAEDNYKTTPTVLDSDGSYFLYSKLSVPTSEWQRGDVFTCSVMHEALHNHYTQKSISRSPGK
# T1 sequence (light, as listed by the source, chain 2 of 2): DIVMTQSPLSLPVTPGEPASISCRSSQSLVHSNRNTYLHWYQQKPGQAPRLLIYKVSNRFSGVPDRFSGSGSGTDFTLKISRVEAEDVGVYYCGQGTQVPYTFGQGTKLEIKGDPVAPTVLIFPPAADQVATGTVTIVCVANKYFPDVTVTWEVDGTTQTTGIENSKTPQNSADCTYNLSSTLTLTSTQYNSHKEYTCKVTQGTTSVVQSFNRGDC
row,Kd,Binder
1,14 nM,B1
2,74 nM,B2

# Target: T2, CD3ε epitope-fused CE115HA146 (CE115HAGP13-rabIgG/GLS3000-rabk)
# T2 construct: stands for the antigen/antibody complex; Rabbit constant regions; also called CE115HAPG13
# Assay: as above
# Procedure: as §1, §2
# T2 sequence (heavy, as listed by the source, chain 1 of 2): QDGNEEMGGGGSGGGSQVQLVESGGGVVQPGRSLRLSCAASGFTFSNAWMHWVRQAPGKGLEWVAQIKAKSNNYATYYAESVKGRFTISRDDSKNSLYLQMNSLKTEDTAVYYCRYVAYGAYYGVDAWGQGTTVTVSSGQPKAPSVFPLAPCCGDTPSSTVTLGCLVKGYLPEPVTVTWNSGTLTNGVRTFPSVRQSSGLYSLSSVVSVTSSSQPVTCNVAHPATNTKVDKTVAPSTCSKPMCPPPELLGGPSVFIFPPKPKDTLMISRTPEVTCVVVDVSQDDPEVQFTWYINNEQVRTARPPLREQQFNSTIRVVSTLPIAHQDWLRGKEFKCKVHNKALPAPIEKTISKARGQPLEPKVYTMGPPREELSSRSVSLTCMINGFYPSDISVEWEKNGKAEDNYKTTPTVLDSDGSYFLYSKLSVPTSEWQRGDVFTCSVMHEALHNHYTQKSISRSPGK
row,Kd,Binder
1,17 nM,B1
2,78 nM,B2

# Target: CD3 antibody CE115HA056 (CE115HA056-F760mnP17/GLS3000-k0)
# Assay: SPR (Biacore), 37 C; ligand antibody captured on SuRe protein A chip (1000 RU), Fab as analyte at 100 nM for 180 s; amount of binding per 1 RU of ligand
# Procedure: as §1
# (§3) First, to evaluate the binding specificity of the clamping antibodies, a ligand was reacted at 37° C. for 60 seconds at a flow rate of 10 μL/min to capture 1000 RU, and an analyte prepared at 100 nM was allowed to act for 180 seconds at a flow rate of 30 μL/min, and the amount of binding was measured.
# Chain of CD3 antibody CE115HA056 (CE115HA056-F760mnP17/GLS3000-k0) (heavy, as listed by the source, chain 1 of 2): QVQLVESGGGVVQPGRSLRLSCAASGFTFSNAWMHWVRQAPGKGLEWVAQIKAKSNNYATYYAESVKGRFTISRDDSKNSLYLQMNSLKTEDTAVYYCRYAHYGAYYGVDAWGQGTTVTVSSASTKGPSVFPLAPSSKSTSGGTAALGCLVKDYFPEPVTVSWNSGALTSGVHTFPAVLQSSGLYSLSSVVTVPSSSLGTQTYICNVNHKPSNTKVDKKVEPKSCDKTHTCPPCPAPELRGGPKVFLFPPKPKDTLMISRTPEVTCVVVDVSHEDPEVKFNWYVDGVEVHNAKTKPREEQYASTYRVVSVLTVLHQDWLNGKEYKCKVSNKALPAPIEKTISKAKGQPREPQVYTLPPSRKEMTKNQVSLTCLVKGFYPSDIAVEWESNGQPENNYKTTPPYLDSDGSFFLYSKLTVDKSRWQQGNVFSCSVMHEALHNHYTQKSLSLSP
# Chain of CD3 antibody CE115HA056 (CE115HA056-F760mnP17/GLS3000-k0) (light, as listed by the source, chain 2 of 2): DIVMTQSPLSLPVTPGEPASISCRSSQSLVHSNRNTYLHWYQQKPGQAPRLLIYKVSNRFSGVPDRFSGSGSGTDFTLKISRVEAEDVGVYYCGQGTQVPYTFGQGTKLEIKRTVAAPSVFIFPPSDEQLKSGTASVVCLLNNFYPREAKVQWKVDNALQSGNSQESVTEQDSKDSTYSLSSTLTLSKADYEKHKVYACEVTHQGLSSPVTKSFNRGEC
row,binding result,Binder
1,no binding (tested: 100 nM),B1
2,no binding (tested: 100 nM),B2
3,no binding (tested: 100 nM),B3

# Target: CD3 antibody CE115HA146 (CE115HA146-F760mnP17/GLS3000-k0)
# Assay: as above
# Procedure: as §1, §3
# Chain of CD3 antibody CE115HA146 (CE115HA146-F760mnP17/GLS3000-k0) (heavy, as listed by the source, chain 1 of 2): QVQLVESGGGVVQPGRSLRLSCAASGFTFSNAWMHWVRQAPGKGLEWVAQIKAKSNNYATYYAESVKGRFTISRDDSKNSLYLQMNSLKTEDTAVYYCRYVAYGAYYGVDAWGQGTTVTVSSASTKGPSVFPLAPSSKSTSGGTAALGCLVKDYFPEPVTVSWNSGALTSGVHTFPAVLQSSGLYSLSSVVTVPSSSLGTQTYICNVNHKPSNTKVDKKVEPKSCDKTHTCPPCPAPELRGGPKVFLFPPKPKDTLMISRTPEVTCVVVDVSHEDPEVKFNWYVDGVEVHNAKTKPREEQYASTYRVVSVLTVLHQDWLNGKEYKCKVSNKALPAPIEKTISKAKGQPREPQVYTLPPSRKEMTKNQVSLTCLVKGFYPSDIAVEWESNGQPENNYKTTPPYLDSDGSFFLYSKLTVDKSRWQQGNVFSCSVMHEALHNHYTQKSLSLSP
row,binding result,Binder
1,no binding (tested: 100 nM),B1
2,no binding (tested: 100 nM),B2
3,no binding (tested: 100 nM),B3

# Target: CD3 antibody CE115HA000 (CE115HA000-F760mnP17/GLS3000-k0)
# Assay: as above
# Procedure: as §1, §3
# Chain of CD3 antibody CE115HA000 (CE115HA000-F760mnP17/GLS3000-k0) (VH, as listed by the source, chain 1 of 2): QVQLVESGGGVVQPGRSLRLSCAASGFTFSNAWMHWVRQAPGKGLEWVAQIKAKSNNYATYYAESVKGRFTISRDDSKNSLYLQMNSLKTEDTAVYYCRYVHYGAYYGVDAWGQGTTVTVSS
# Chain of CD3 antibody CE115HA000 (CE115HA000-F760mnP17/GLS3000-k0) (VL, as listed by the source, chain 2 of 2): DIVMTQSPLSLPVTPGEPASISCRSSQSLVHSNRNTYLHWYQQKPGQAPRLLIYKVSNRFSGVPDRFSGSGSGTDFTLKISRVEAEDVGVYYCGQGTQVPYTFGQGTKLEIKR
row,binding result,Binder
1,no binding (tested: 100 nM),B1
2,no binding (tested: 100 nM),B2
3,no binding (tested: 100 nM),B3

# Target: T3, CD3ε epitope-fused GPC3 antibody (hGC33VHGP01-rabCH1hG1m/hGC33VL-rabk)
# T3 construct: control for recognition of the peptide alone
# Assay: as above
# Procedure: as §1, §3
# T3 sequence (VH, as listed by the source, chain 1 of 2): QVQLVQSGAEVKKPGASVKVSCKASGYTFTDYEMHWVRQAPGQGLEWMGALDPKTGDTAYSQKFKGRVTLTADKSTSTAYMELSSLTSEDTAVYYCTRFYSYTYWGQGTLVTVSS
# T3 sequence (VL, as listed by the source, chain 2 of 2): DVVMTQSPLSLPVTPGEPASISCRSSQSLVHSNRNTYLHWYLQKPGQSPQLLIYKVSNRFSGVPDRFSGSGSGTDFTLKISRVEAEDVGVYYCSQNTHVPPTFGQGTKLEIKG
row,binding result,Binder
1,no binding (tested: 100 nM),B1
2,no binding (tested: 100 nM),B2
3,no binding (tested: 100 nM),B3

# Target: T4, negative control IC17 (IC17Hdk-F760mnP17/IC17L-k0)
# T4 construct: also called anti-KLH antibody
# Assay: as above
# Procedure: as §1, §3
# T4 sequence (VH, as listed by the source, chain 1 of 2): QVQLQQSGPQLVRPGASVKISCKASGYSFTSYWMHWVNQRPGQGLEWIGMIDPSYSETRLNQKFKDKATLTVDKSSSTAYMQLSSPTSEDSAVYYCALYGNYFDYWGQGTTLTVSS
# T4 sequence (VL, as listed by the source, chain 2 of 2): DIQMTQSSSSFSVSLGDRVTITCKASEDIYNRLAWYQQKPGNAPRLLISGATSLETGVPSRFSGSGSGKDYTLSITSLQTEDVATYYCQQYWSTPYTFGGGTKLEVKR
row,binding result,Binder
1,no binding (tested: 100 nM),B1
2,no binding (tested: 100 nM),B2
3,no binding (tested: 100 nM),B3

# Target: T5, adenosine-binding antibody SMB0002hH-G1m3/SMB0002hL-k0a
# T5 construct: also called biotinylated SMB0002hH-G1m3/SMB0002hL-k0
# Assay: BLI (OctetHTX), target on streptavidin sensor, antibody 10 ug/mL, 30 C, with and without adenosine
# Procedure: Evaluation of the binding of each prepared and purified antibody to a complex of adenosine with an adenosine-binding antibody was performed using OctetHTX (ForteBio). Specifically, biotinylated SMB0002Fab prepared by the method described in Example 9, which was prepared with TBS or adenosine/TBS or SMB0002hH-G1m3/SMB0002hL-k0a biotinylated with EZ-Link Sulfo-NHS-SS-Biotin was bound to Dip and Read™ Streptavidin (SA) Biosensors (ForteBio). Subsequently, each purified antibody prepared at 10 μg/mL using TBS or adenosine/TBS was allowed to act, and the binding at 30° C. was evaluated.
# T5 sequence (VH, as listed by the source, chain 1 of 2): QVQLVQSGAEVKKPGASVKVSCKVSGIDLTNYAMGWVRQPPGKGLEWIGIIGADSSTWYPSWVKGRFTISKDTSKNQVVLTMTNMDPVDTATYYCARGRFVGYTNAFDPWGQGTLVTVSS
# T5 sequence (V domain, as listed by the source, chain 2 of 2): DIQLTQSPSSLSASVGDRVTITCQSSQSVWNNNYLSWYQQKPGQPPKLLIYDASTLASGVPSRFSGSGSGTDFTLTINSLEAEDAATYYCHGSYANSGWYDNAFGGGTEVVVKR
row,binding result,Binder
1,binds,B4
2,binds,B5
3,binds,B6
4,binds,B7
5,binds,B8
6,binds,B9
7,binds,B10
8,binds,B11
9,binds,B12
10,binds,B13
11,binds,B14
